# The supplement of paper PMC12042874
# ± gives the uncertainty stated by the source.
# Assay: amyloid nucleation score (Sup35N fusion, yeast selection) (log enrichment); library NNK2; higher = more nucleation; inactive = no reads after selection
# Method in brief: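 Peptides of 20 random codons, each fused to Sup35N, were expressed in psi-negative yeast. Cells were induced with 100 μM copper sulfate for 24 hours and grown 7 days at 30°C on medium lacking adenine and uracil, and plasmid inserts before and after selection were Illumina-sequenced. Nucleation scores are DiMSum log enrichments of output over input reads, centred on the mode score of non-aggregating sequences, and sequences under 100 input reads were excluded.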
row,Substance,amyloid nucleation score
1,NFSYASNTEHRPVSNIFWEL,-1.33 ± 0.62
2,NFSYNRCVR,0.383 ± 0.49
3,NFWYCYTLSDNNYFF,7.41 ± 0.038
4,NFYMSKVVSFKNGCM,3.3 ± 0.057
5,NFYSYIWLLL,6.38 ± 0.064
6,NFYVVDQCSYRSGRLNIKWL,4.13 ± 0.079
7,NGCQV,0.545 ± 0.6
8,NGCYQGYKCVLRQLAFKSSG,-0.17 ± 0.5
9,NGDSGG,1.02 ± 0.16
10,NGHFCWPFFMARHMELREE,-0.013 ± 0.56
11,NGIKFRGMVVTP,0.294 ± 0.65
12,NGILRRCMSKLSRAWPDGLE,10.71 ± 0.046
13,NGKNILD,inactive
14,NGMRIGTDLGFYSRGMLRTQ,0.162 ± 0.26
15,NGSRSSMSGARERYCYIRVS,inactive
16,NHESYWSKSSWFWLFNGVSQ,inactive
17,NHRQDKLQNHVSGLPSIGSL,0.059 ± 0.36
18,NHSVYVYMLMALTTWGVLSS,-0.403 ± 0.79
19,NHYSSVMKVFCDRFTSAIGG,-0.946 ± 0.63
20,NIARNFRYRM,-1.86 ± 1.1
21,NIDSVLRNYSCDHRKYHSLE,-0.305 ± 1
22,NIDSWVKGFVKY,-0.558 ± 1

row,Substance,amyloid nucleation score
1,NIFFVRCYFNVLYNGALCHS,7.025 ± 0.043
2,NIFQGAICYQTYGGVFPYFL,6.151 ± 0.042
3,NINDEPPNNHMMHTITHKWT,inactive
4,NIRAKNRDFRLGLANRKETA,1.15 ± 0.27
5,NIRNDVLNQLT,2.11 ± 0.14
6,NIRTKILLGY,0.006 ± 0.44
7,NIVGHAHRLFNRMRCLRLYQ,-0.439 ± 0.32
8,NIYNPVD,-0.196 ± 1.1
9,NKLYFVGKWNGFVSSVCSLV,-0.942 ± 0.41
10,NKRHSGRFSVLQISA,0.957 ± 0.15
11,NKVFSFDYVVNNE,inactive
12,NKYKLNLYMRVIGDQNNPVN,-0.249 ± 1
13,NLAGKGAITDRFSQVRSGQS,1.4 ± 0.25
14,NLCDYSSSRLIASRNMHYTA,4 ± 0.07
15,NLDDEL,0.422 ± 0.43
16,NLDDYYDNILFTAMR,0.201 ± 0.54
17,NLEPKNCCCCETFFISYIPT,1.09 ± 0.35
18,NLGCPYCISVGC,0.649 ± 0.42
19,NLHATWTLDESDFLYQPCLS,0.102 ± 0.2
20,NLHEMLIGHGRQVRR,1.42 ± 0.36
21,NLHYHSSTSSTRNFKYGCAF,inactive
22,NLKDYIAFHNMSTAV,2.22 ± 0.1

row,Substance,amyloid nucleation score
1,NLKRVKRMIPYYTTQ,-0.343 ± 0.33
2,NLLRNRARWL,-1.08 ± 0.44
3,NLNFDPGVLF,inactive
4,NLNMVTWVRQTHI,-0.726 ± 0.32
5,NLNVIPDCLWFYDSRMLFFI,inactive
6,NLRRKH,0.294 ± 0.8
7,NLSLAFALMTSVVNHNMWSG,5.661 ± 0.044
8,NLSSWTVLILRSDAVVPVFL,4.07 ± 0.078
9,NMCVK,inactive
10,NMDKRSNGFRKCMWLS,-0.883 ± 1.1
11,NMKGTPVYLSFYDCSRPVGW,4.04 ± 0.11
12,NMLVVFNAPYYSL,7.811 ± 0.049
13,NMMWCVKHYKSVRSLLGCLV,-0.891 ± 0.54
14,NMQFSSTFRYSGYYYLVEHW,1.59 ± 0.13
15,NMYFCLFFRIVLLLGNDKIA,-1.06 ± 0.6
16,NMYSCQYVCGTALDDDWVGC,7.813 ± 0.059
17,NNFATLSKL,inactive
18,NNFEI,-0.672 ± 0.6
19,NNFYKWGESCLN,-0.9 ± 0.76
20,NNKYWWDVLYYNSTLLARVN,-0.225 ± 0.48
21,NNLLYLLLLYVQTSAE,4.49 ± 0.099
22,NNSAECRMSIKRSACGLQIA,0.961 ± 0.37

row,Substance,amyloid nucleation score
1,NNYAADGRCNYWGSISLKVR,inactive
2,NPDLNKT,1.36 ± 0.39
3,NPLFHSPV,0.01 ± 0.65
4,NQFEGLKMRSTKLGAGGS,-0.293 ± 0.64
5,NQNIVVAVEVQVWFICNFVH,3.08 ± 0.1
6,NQRIGKTGFYSRSRARLNKT,3.37 ± 0.06
7,NQSWRVVRQVCVEETRMMCG,0.89 ± 0.23
8,NQTNSGQRVY,-0.208 ± 1.1
9,NRAVGNEAYCRSGWSGFHSL,-0.459 ± 1.1
10,NRELV,-1.67 ± 0.64
11,NRFFAALLFKADLFWSQF,-0.021 ± 0.76
12,NRFVYLVI,-0.321 ± 0.36
13,NRGSAPYYVTICYCNLC,8.578 ± 0.035
14,NRGTEWISGECRYHWQDVRQ,0.109 ± 0.21
15,NRKFHIMTFC,0.415 ± 0.41
16,NRKRLWHYFLGTKDISIERV,inactive
17,NRRNLSVGYSKVHS,0.443 ± 0.3
18,NRSAYLGRMVSI,0.164 ± 0.44
19,NRSTKTMSYWPLVRNLLT,1.51 ± 0.3
20,NRVTCYSMDRNIM,-0.776 ± 1.1
21,NRWKHYTDGSTL,-0.02 ± 0.39
22,NRYVEVCPFLMGTVVGLWLR,0.851 ± 0.8
